Here are results for nine molecules from patent publication US8951758B2, “GH61 glycoside hydrolase protein variants and cofactors that enhance GH61 activity” (Codexis, Inc., priority 2011, dated 2015).

First the molecules themselves.
B1: beta-xylosidase: wild-type M. thermophila beta-xylosidase (SEQ ID NO:164) (protein, listed as Myceliophthora thermophila)
chain: MFFASLLLGLLAGVSASPGHGRNSTFYNPIFPGFYPDPSCIYVPERDHTFFCASSSFNAFPGIPIHASKDLQNWKLIGHVLNRKEQLPRLAETNRSTSGIWAPTLRFHDDTFWLVTTLVDDDRPQEDASRWDNIIFKAKNPYDPRSWSKAVHFNFTGYDTEPFWDEDGKVYITGAHAWHVGPYIQQAEVDLDTGAVGEWRIIWNGTGGMAPEGPHIYRKDGWYYLLAAEGGTGIDHMVTMARSRKISSPYESNPNNPVLTNANTTSYFQTVGHSDLFHDRHGNWWAVALSTRSGPEYLHYPMGRETVMTAVSWPKDEWPTFTPISGKMSGWPMPPSQKDIRGVGPYVNSPDPEHLTFPRSAPLPAHLTYWRYPNPSSYTPSPPGHPNTLRLTPSRLNLTALNGNYAGADQTFVSRRQQHTLFTYSVTLDYAPRTAGEEAGVTAFLTQNHHLDLGVVLLPRGSATAPSLPGLSSSTTTTSSSSSRPDEEEEREAGEEEEEGGQDLMIPHVRFRGESYVPVPAPVVYPIPRAWRGGKLVLEIRACNSTHFSFRVGPDGRRSERTVVMEASNEAVSWGFTGTLLGIYATSNGGNGTTPAYFSDWRYTPLEQFRD
B2: EG1b: Wild-type EG1b endoglucanase (SEQ ID NO:110) (protein, listed as Myceliophthora thermophila)
chain: MGQKTLQGLVAAAALAASVANAQQPGTFTPEVHPTLPTWKCTTSGGCVQQDTSVVLDWNYRWFHTEDGSKSCITSSGVDRTLCPDEATCAKNCFVEGVNYTSSGVETSGSSLTLRQFFKGSDGAINSVSPRVYLLGGDGNYVVLKLLGQELSFDVDVSSLPCGENAALYLSEMDATGGRNEYNTGGAEYGSGYCDAQCPVQNWNNGTLNTGRVGSCCNEMDILEANSKAEAFTPHPCIGNSCDKSGCGFNAYARGYHNYWAPGGTLDTSRPFTMITRFVTDDGTTSGKLARIERVYVQDGKKVPSAAPGGDVITADGCTSAQPYGGLSGMGDALGRGMVLALSIWNDASGYMNWLDAGSNGPCSDTEGNPSNILANHPDAHVVLSNIRWGDIGSTVDTGDGDNNGGGPNPSSTTTATATTTSSGPAEPTQTHYGQCGGKGWTGPTRCETPYTCKYQNDWYSQCL
B3: GH61p: M. thermophila GH61p (SEQ ID NO:70; alternative SEQ ID NO:73) (protein, listed as Myceliophthora thermophila)
chain: MKLTSSLAVLAAAGAQAHYTFPRAGTGGSLSGEWEVVRMTENHYSHGPVTDVTSPEMTCYQSGVQGAPQTVQVKAGSQFTFSVDPSIGHPGPLQFYMAKVPSGQTAATFDGTGAVWFKIYQDGPNGLGTDSITWPSAGKTEVSVTIPSCIEDGEYLLRVEHTPLPTAPAAQNRARSSPSPAAYKATDPGILFQLYWPIPTEYINPGPAPVSC
B4: FAE: wild-type M. thermophila ferulic acid esterase (SEQ ID NO:170) (protein, listed as Myceliophthora thermophila)
chain: MISVPALALALLAAVQVVESASAGCGKAPPSSGTKSMTVNGKQRQYILQLPNNYDANKAHRVVIGYHWRDGSMNDVANGGFYDLRSRAGDSTIFVAPNGLNAGWANVGGEDITFTDQIVDMLKNDLCVDETQFFATGWSYGGAMSHSVACSRPDVFKAVAVIAGAQLSGCAGGTTPVAYLGIHGAADNVLPIDLGRQLRDKWLQTNGCNYQGAQDPAPGQQAHIKTTYSCSRAPVTWIGHGGGHVPDPTGNNGVKFAPQETWDFFDAAVGAAGAQSPMT
B5: AXE3: wild-type M. thermophila acetylxylan esterase (SEQ ID NO:167) (protein, listed as Myceliophthora thermophila)
chain: MKLLGKLSAALALAGSRLAAAHPVFDELMRPTAPLVRPRAALQQVTNFGSNPSNTKMFIYVPDKLAPNPPIIVAIHYCTGTAQAYYSGSPYARLADQKGFIVIYPESPYSGTCWDVSSRAALTHNGGGDSNSIANMVTYTLEKYNGDASKVFVTGSSSGAMMTNVMAAAYPELFAAGIAYSGVPAGCFYSQSGGTNAWNSSCANGQINSTPQVWAKMVFDMYPEYDGPRPKMQIYHGSADGTLRPSNYNETIKQWCGVFGFDYTRPDTTQANSPQAGYTTYTWGEQQLVGIYAQGVGHTVPIRGSDDMAFFGL
B6: CBH2b: wild-type M. thermophila CBH2b (SEQ ID NO:137) (protein, listed as Myceliophthora thermophila)
chain: MAKKLFITAALAAAVLAAPVIEERQNCGAVWTQCGGNGWQGPTCCASGSTCVAQNEWYSQCLPNSQVTSSTTPSSTSTSQRSTSTSSSTTRSGSSSSSSTTPPPVSSPVTSIPGGATSTASYSGNPFSGVRLFANDYYRSEVHNLAIPSMTGTLAAKASAVAEVPSFQWLDRNVTIDTLMVQTLSQVRALNKAGANPPYAAQLVVYDLPDRDCAAAASNGEFSIANGGAANYRSYIDAIRKHIIEYSDIRIILVIEPDSMANMVTNMNVAKCSNAASTYHELTVYALKQLNLPNVAMYLDAGHAGWLGWPANIQPAAELFAGIYNDAGKPAAVRGLATNVANYNAWSIASAPSYTSPNPNYDEKHYIEAFSPLLNSAGFPARFIVDTGRNGKQPTGQQQWGDWCNVKGTGFGVRPTANTGHELVDAFVWVKPGGESDGTSDTSAARYDYHCGLSDALQPAPEAGQWFQAYFEQLLTNANPPF
B7: Xyl3: wild-type M. thermophila xylanase (SEQ ID NO:149) (protein, listed as Myceliophthora thermophila)
chain: MHSKAFLAALLAPAVSGQLNDLAVRAGLKYFGTALSESVINSDTRYAAILSDKSMFGQLVPENGMKWDATEPSRGQFNYASGDITANTAKKNGQGMRCHTMVWYSQLPSWVSSGSWTRDSLTSVIETHMNNVMGHYKGQCYAWDVINEAINDDGNSWRDNVFLRTFGTDYFALSFNLAKKADPDTKLYYNDYNLEYNQAKTDRAVELVKMVQAAGAPIDGVGFQGHLIVGSTPTRSQLATALQRFTALGLEVAYTELDIRHSSLPASSSALATQGNDFANVVGSCLDTAGCVGVTVWGFTDAHSWIPNTFPGQGDALIYDSNYNKKPAWTSISSVLAAKATGAPPASSSTTLVTITTPPPASTTASSSSSATPTSVPTQTRWGQCGGIGWTGPTQCESPWTCQKLNDWYWQCL
B8: GH61n: M. thermophila GH61n (SEQ ID NO:62; alternative SEQ ID NO:64) (protein, listed as Myceliophthora thermophila)
chain: MTKNAQSKQGVENPTSGDIRCYTSQTAANVVTVPAGSTIHYISTQQINHPGPTQYYLAKVPPGSSAKTFDGSGAVWFKISTTMPTVDSNKQMFWPGQNTYETSNTTIPANTPDGEYLLRVKQIALHMASQPNKVQFYLACTQIKITGGRNGTPSPLVALPGAYKSTDPGILVDIYSMKPESYQPPGPPVWRG
B9: GH61f: M. thermophila GH61f (SEQ ID NO:29) (protein, listed as Myceliophthora thermophila)
chain: MKSFTLTTLAALAGNAAAHATFQALWVDGVDYGAQCARLPASNSPVTDVTSNAIRCNANPSPARGKCPVKAGSTVTVEMHQQPGDRSCSSEAIGGAHYGPVMVYMSKVSDAASADGSSGWFKVFEDGWAKNPSGGSGDDDYWGTKDLNSCCGKMNVKIPADLPSGDYLLRAEALALHTAGSAGGAQFYMTCYQLTVTGSGSASPPTVSFPGAYKATDPGILVNIHAPLSGYTVPGPAVYSGGSTKKAGSACTGCESTCAVGSGPTATVSQSPGSTATSAPGGGGGCTVQKYQQCGGQGYTGCTNCASGSTCSAVSPPYYSQCV

The subject of the first assay is pretreated wheat straw (PWS). Put plainly: Supplementation of CF-416 whole cellulase broth with single purified enzymes, saccharification of pretreated wheat straw. The class given is biochemical. The note with it: 0.4% single enzyme added to 0.5% CF-416 whole cellulase broth base. The method, then:
(§1) In this Example, M. thermophila-produced and purified GH61a, GH61p, GH61f, GH61n, CBH1a, CBH2b, AXE3, FAE, and Xyl3, were used to supplement the activity present in culture broths (i.e., “whole broth cellulase base”) of the M. thermophila strain CF-416 prepared using standard methods known in the art. The broth cellulase base was fixed to 0.5% protein and the single purified enzyme was added at 0.4% (wt added protein/wt glucan) to the saccharification reactions. The whole cellulase broth base and individual enzymes were characterized by standard BCA assays for total protein quantification.
(§2) The saccharification reactions were carried out at 74 g/L glucan load of pretreated wheat straw (PWS) or pretreated corn stover (PCS) at pH 5.0, 55° C. at 950 rpm in the presence of 50 μM copper in high throughput (HTP) 96 deep well plates. Glucose analysis was carried out by the glucose oxidase assay as described above. In each case, the fold improvement was calculated using the formula Fold Improvement=[Total Glucose Production with addition of 0.4% single enzyme to the whole cellulase broth base]/[glucose production from the 0.5% whole cellulase broth base]. In this Table, the fold improvements were ranked from 0 to 3; fold improvements less than 1.2× are indicated by “0,” fold improvements of >1.2 to <1.5 are indicated by “1,” fold improvements of ≧1.5× to <1.7× improvements are indicated by “2,” and fold improvements ≧1.7 are indicated by “3.”
Regarding B1, the “improvement over whole cellulase broth on PWS, in words” value is on record as “did not show any improvement”.
Still for that read-out and setting: then B2, with “did not show any improvement”.

Still in this assay, the particulars now being: 0.4% single enzyme added to 0.5% CF-416 whole cellulase broth base; 74 g/L glucan, pH 5.0, 55° C., 50 μM copper.
On to B3, for which the “Fold Improvement Over Whole Cellulase Broth Tested on PWS” value is 2 (fold improvements of ≧1.5× to <1.7×).
The same measure, in the same setting: then B4, with 1 (fold improvements of >1.2 to <1.5).
The same measure, in the same setting: then B5, with 1 (fold improvements of >1.2 to <1.5).
On the same count and under the same terms, then B6, with 1 (fold improvements of >1.2 to <1.5); and B7, with 1 (fold improvements of >1.2 to <1.5).
In the case of B8, the “Fold Improvement Over Whole Cellulase Broth Tested on PWS” value was 1 (fold improvements of >1.2 to <1.5).
For the molecule B9, the “Fold Improvement Over Whole Cellulase Broth Tested on PWS” value was 1 (fold improvements of >1.2 to <1.5).

Another assay concerns pretreated corn stover (PCS). The experiment in a line: Supplementation of CF-416 whole cellulase broth with single purified enzymes, saccharification of pretreated corn stover. Type of assay: biochemical. The note with it: 0.4% single enzyme added to 0.5% CF-416 whole cellulase broth base. The method, then: as §1, §2
As for B3, the “improvement over whole cellulase broth on PCS, in words” value is reported as “greatest benefit”.
On the same count and under the same terms, in the case of B1 it was “did not show any improvement”.
In the case of B2, the “improvement over whole cellulase broth on PCS, in words” value was “did not show any improvement”.

Staying with this assay, now noted: 0.4% single enzyme added to 0.5% CF-416 whole cellulase broth base; 74 g/L glucan, pH 5.0, 55° C., 50 μM copper.
Turning to B3, the “Fold Improvement Over Whole Cellulase Broth Tested on PCS” value was 3 (fold improvements ≧1.7).
Consider B4, for which the “Fold Improvement Over Whole Cellulase Broth Tested on PCS” value is listed as 1 (fold improvements of >1.2 to <1.5).
In the case of B5, the “Fold Improvement Over Whole Cellulase Broth Tested on PCS” value was 0 (fold improvements less than 1.2×).
On the same count and under the same terms, in the case of B6 it was 1 (fold improvements of >1.2 to <1.5); in that of B7, 0 (fold improvements less than 1.2×).
Still for that read-out and setting: in the case of B8 it was 1 (fold improvements of >1.2 to <1.5).
On to B9, for which the “Fold Improvement Over Whole Cellulase Broth Tested on PCS” value is 1 (fold improvements of >1.2 to <1.5).
